# Values of other authors, collected in PMC3617488 (European journal of nuclear medicine and molecular imaging, 2011).
# Legend:
# [1] = human
Substance,Plasma half-life (comparison with exendin-4),Half-life of the parent peptide [1] [h]
AC3174: exendin-4 analog which contains a leucine for methionine substitution,shorter plasma half-life,–
exendin-4: subcutaneously administered peptide drug used in the treatment of type 2 diabetes,–,9.57
